Assay [1] has as its target intact Tlr4 protein, endogenous in RAW 264.7 macrophages (mouse) (UniProt Q9QUK6). Briefly: cell-based or functional assay.
The target of assay [2] is flag-tagged Tlr4^Lps-n, residues 22-835, expressed in RAW 264.7 cells (mouse) (UniProt Q9QUK6). Briefly: equilibrium specific binding of M2 at a fixed concentration to RAW 264.7 clones, mean of 10 clones.
Assay [3] addresses flag-tagged Tlr4^Lps-d, residues 22-835 (P712H), expressed in RAW 264.7 cells (mouse) (UniProt Q9QUK6). The description is as above.
Assay [4] has the same target. Kind of assay: saturation isotherm of 125I-M2 (50 ng/ml to 20 ug/ml) on transfected RAW 264.7 cells.
Assay [5] has as its target flag-tagged Tlr4^Lps-d cytoplasmic domain construct, residues 630-835 (P712H) (mouse) (UniProt Q9QUK6). Briefly: equilibrium specific binding of M2 at a fixed concentration to RAW 264.7 clones, mean of 8 clones.
Assay [6] addresses flag-tagged Tlr4 ectodomain construct, residues 22-660 (no cytoplasmic domain) (mouse) (UniProt Q9QUK6). Briefly: equilibrium specific binding of M2 at a fixed concentration to RAW 264.7 clones, mean of 9 clones.
The target of assay [7] is flag-tagged Tlr4^Lps-n cytoplasmic domain construct, residues 630-835 (mouse) (UniProt Q9QUK6). Briefly: equilibrium specific binding of M2 at a fixed concentration to RAW 264.7 clones, mean of 7 clones.
The target in assay [8] is flag-tagged Tlr4^Lps-d, residues 22-835 (P712H), expressed in RAW 264.7 cells (mouse) (UniProt Q9QUK6). Briefly: saturation isotherm of 125I-M2 on transfected RAW 264.7 cells, nonlinear regression.
For a further assay, the system named is RAW 264.7 cells. Briefly: LPS-induced TNF production (EC50 shift) in RAW 264.7 clones expressing Tlr4 constructs, L-929 cytotoxicity assay. The class given is cell-based, murine. The settings on record: for effect on LPS signaling (in words): over-expression of truncated constructs in RAW 264.7 cells; for rightward EC50 shift (inhibition of LPS signaling): membrane-associated cytoplasmic domain constructs lacking the entire ectodomain; for leftward shift of the LPS EC50 curve (augmentation of the LPS response): over-expression in RAW 264.7, TNF production. The method, then: FIG. 15C. Composite analysis of the shift in EC50 caused by expression of Tlr4^Lps-n and Tlr4^Lps-d in RAW 264.7 cells. Each point represents an EC50 determination performed on ten independent clones at the stated LPS concentration. For each clone, four replicate assays were performed at each concentration. […] Transfected macrophages were plated in 24 well plates at a density of 5×10^5 cells per well, and covered with 1.0 ml of DMEM supplemented with 10% FBS. LPS was added to each well at the concentration indicated. After 15 hours of incubation the medium was harvested, and TNF concentration was assayed in the standard L-929 cytotoxicity system^36, using cycloheximide at a concentration of 100·g/ml to potentiate killing. After 15 hours of exposure to diluted macrophage medium or to mouse TNF applied at a range of 8 standard concentrations, the number of viable cells was determined by staining with crystal violet. A standard curve relating % cytotoxicity to TNF concentration (not shown) was generated using Prism 3.0, and was based on an assumption of sigmoidicity. Variance among replicate samples was typically beneath 5% of the mean, and departures of individual samples from the sigmoid plot were typically smaller still. Linear estimates of TNF concentration in unknown samples were based on non-linear interpolation from the standard curve (also performed using Prism 3.0). The curves shown were generated assuming sigmoidicity of response with variable slope for each curve, and further assigning a maximum response value of 1760 pg TNF, which yielded an optimal fit for the most responsive curve. Error bars indicate standard deviation among clones at each LPS concentration. Log EC50 values and standard error values are shown in the inset table.
FIG. 15D. Shifts of the log EC50, determined for individual clones. A more conservative approach, in which log EC50 values were determined for individual clones transfected with vector alone, or with the Tlr4^Lps-n or Tlr4^Lps-d constructs. The log EC50 data were then represented as a scatter plot, in which each point represents the log EC50 determination of a single clone (confidence limits not shown for the sake of simplicity), and is derived from 24 separate TNF assays performed on samples stimulated over a 10^4-fold range of LPS concentration (100 pg/ml to 1·g/ml, as well as an unstimulated control). In most instances, two determinations of log EC50 were made independently for each clone. The mean and standard error of each cluster is shown in the inset, together with p values defining the likelihood that the EC50 displacements are attributable to chance. Data were analyzed by means of a one-tailed t test, using Welch's correction for unequal variance.
In order to directly examine the role of Tlr4 as a transducer of the LPS signal in macrophages, the inventors expressed the normal mouse protein—and various mutant forms—in RAW 264.7 macrophages have been expressed (FIG. 14; Table VIII). These cells of murine origin are highly responsive to LPS, and are known to express the Tlr4 mRNA (Poltorak et al, 1998b). Unlike cell lines of non-myeloid origin (i.e., 293 cells or CHO cells), they express all proteins required for the elicitation of a biologically relevant response to LPS (e.g., TNF production). As such, they may be used to determine whether Tlr4 is a limiting factor in the initiation of an LPS signal, and to examine the mechanism by which the Tlr4^Lps-d allele exerts its dominant inhibitory effect on signaling. This was determined by performing more than 3,000 assays of TNF production, induced over an extensive range of LPS concentrations in numerous stable clones, since individual clones show considerable background variability in LPS responses. Moreover, because culture conditions can affect the sensitivity of the TNF assay and production of TNF by LPS-stimulated cells, all transfected and control clones were induced and assayed in parallel. […]

Positions count from the first letter of the chain named. In names and notes the source's numbering stands. Entries after “also recorded” stand apart in the source; their conditions may differ.

For the molecule “flag-tagged Tlr4^Lps-d cytoplasmic domain construct, residues 630-835 (P712H) (from UniProt Q9QUK6 630-835) (receptor)”, in assay [1], the shift of the LPS EC50 for TNF production in RAW 264.7 clones turned out to be 39 fold.
On the same count and under the same terms, under “flag-tagged Tlr4^Lps-n cytoplasmic domain construct, residues 630-835 (from UniProt Q9QUK6 630-835) (receptor)” stands 4 fold.
Take “monoclonal antibody M2 (obtained from Sigma)”: the Copies/cell in assay [2] came to 21000 copies/cell; in assay [3], 20000 copies/cell; in [5] it was 9900 copies/cell; in [6], 14000 copies/cell; in [7], 12000 copies/cell. In addition, in assay [4], the % saturation of the surface receptor at the highest antibody concentration was 56.4%. The same molecule gave a binding sites per cell (binding sites per cell) in [8] of 28100.

B1: Ectodomain: membrane-anchored truncated Tlr4, residues 22–660, lacking the entire cytoplasmic domain (protein)
chain: PGSLNPCIEVVPNITYQCMDQKLSKVPDDIPSSTKNIDLSFNPLKILKSYSFSNFSELQWLDLSRCEIETIEDKAWHGLHHLSNLILTGNPIQSFSPGSFSGLTSLENLVAVETKLASLESFPIGQLITLKKLNVAHNFIHSCKLPAYFSNLTNLVHVDLSYNYIQTITVNDLQFLRENPQVNLSLDMSLNPIDFIQDQAFQGIKLHELTLRGNFNSSNIMKTCLQNLAGLHVHRLILGEFKDERNLEIFEPSIMEGLCDVTIDEFRLTYTNDFSDDIVKFHCLANVSAMSLAGVSIKYLEDVPKHFKWQSLSIIRCQLKQFPTLDLPFLKSLTLTMNKGSISFKKVALPSLSYLDLSRNALSFSGCCSYSDLGTNSLRHLDLSFNGAIIMSANFMGLEELQHLDFQHSTLKRVTEFSAFLSLEKLLYLDISYTNTKIDFDGIFLGLTSLNTLKMAGNSFKDNTLSNVFANTTNLTFLDLSKCQLEQISWGVFDTLHRLQLLNMSHNNLLFLDSSHYNQLYSLSTLDCSFNRIETSKGILQHFPKSLAFFNLTNNSVACICEHQKFLQWVKEQKQFLVNVEQMTCATPVEMNTSLVLDFNNSTCYMYKTIISVSVVSVIVVSTVAFLIYHFYFHLILIA
modifications: left off: small tags and cut ends
notes: membrane-anchored truncated Tlr4, residues 22–660, lacking the entire cytoplasmic domain
As to B1, the “effect on LPS signaling (in words)” value is “inhibited the LPS response only weakly, if at all; also recorded: fails to inhibit LPS signaling” in the assay on RAW 264.7 cells (listed as Tlr4 ectodomain) and “only a weak inhibitory effect on LPS signaling” in the assay on RAW 264.7 cells (listed as truncated version of the Tlr4 protein).

B2: Tlr4^Lps-d Cyt. Dom.: membrane-associated Tlr4 cytoplasmic domain with P712H, residues 630–835, with flag peptide, lacking the ectodomain (protein)
chain: TIISVSVVSVIVVSTVAFLIYHFYFHLILIAGCKKYSRGESIYDAFVIYSSQNEDWVRNELVKNLEEGVPRFHLCLHYRDFIHGVAIAANIIQEGFHKSRKVIVVVSRHFIQSRWCIFEYEIAQTWQFLSSRSGIIFIVLEKVEKSLLRQQVELYRLLSRNTYLEWEDNPLGRHIFWRRLKNALLDGKASNPEQTAEEEQETATWT
modifications: left off: small tags and cut ends
notes: membrane-associated Tlr4 cytoplasmic domain with P712H, residues 630–835, with flag peptide, lacking the ectodomain
For the molecule B2, the “rightward EC50 shift (inhibition of LPS signaling)” value in the assay on RAW 264.7 cells came out at 39 fold.

B3: Tlr4^Lps-n Cyt. Dom.: membrane-associated Tlr4 cytoplasmic domain, normal sequence, residues 630–835, with flag peptide, lacking the ectodomain (protein)
chain: B2 chain with H83P
modifications: left off: small tags and cut ends
Take B3: the “rightward EC50 shift (inhibition of LPS signaling)” value in the assay with RAW 264.7 cells was determined as 4 fold.

B4: Tlr4^Lps-n: flag-tagged full-length normal mouse Tlr4, residues 22–835, expressed in RAW 264.7 cells (protein)
chain: PGSLNPCIEVVPNITYQCMDQKLSKVPDDIPSSTKNIDLSFNPLKILKSYSFSNFSELQWLDLSRCEIETIEDKAWHGLHHLSNLILTGNPIQSFSPGSFSGLTSLENLVAVETKLASLESFPIGQLITLKKLNVAHNFIHSCKLPAYFSNLTNLVHVDLSYNYIQTITVNDLQFLRENPQVNLSLDMSLNPIDFIQDQAFQGIKLHELTLRGNFNSSNIMKTCLQNLAGLHVHRLILGEFKDERNLEIFEPSIMEGLCDVTIDEFRLTYTNDFSDDIVKFHCLANVSAMSLAGVSIKYLEDVPKHFKWQSLSIIRCQLKQFPTLDLPFLKSLTLTMNKGSISFKKVALPSLSYLDLSRNALSFSGCCSYSDLGTNSLRHLDLSFNGAIIMSANFMGLEELQHLDFQHSTLKRVTEFSAFLSLEKLLYLDISYTNTKIDFDGIFLGLTSLNTLKMAGNSFKDNTLSNVFANTTNLTFLDLSKCQLEQISWGVFDTLHRLQLLNMSHNNLLFLDSSHYNQLYSLSTLDCSFNRIETSKGILQHFPKSLAFFNLTNNSVACICEHQKFLQWVKEQKQFLVNVEQMTCATPVEMNTSLVLDFNNSTCYMYKTIISVSVVSVIVVSTVAFLIYHFYFHLILIAGCKKYSRGESIYDAFVIYSSQNEDWVRNELVKNLEEGVPRFHLCLHYRDFIPGVAIAANIIQEGFHKSRKVIVVVSRHFIQSRWCIFEYEIAQTWQFLSSRSGIIFIVLEKVEKSLLRQQVELYRLLSRNTYLEWEDNPLGRHIFWRRLKNALLDGKASNPEQTAEEEQETATWT
modifications: left off: small tags and cut ends
notes: flag-tagged full-length normal mouse Tlr4, residues 22–835, expressed in RAW 264.7 cells
For the molecule B4, the “leftward shift of the LPS EC50 curve (augmentation of the LPS response)” value with RAW 264.7 cells (composite EC50 analysis) is on record as 30 fold; in the assay on RAW 264.7 cells (composite EC50 analysis, listed as Tlr4), “about 30 fold”.

B5: Tlr4^Lps-d: flag-tagged full-length mouse Tlr4 with P712H mutation, residues 22–835, expressed in RAW 264.7 cells (protein)
chain: B4 chain with P691H
modifications: left off: small tags and cut ends
notes: flag-tagged full-length mouse Tlr4 with P712H mutation, residues 22–835, expressed in RAW 264.7 cells
Regarding B5, the “composite range of responsiveness (mean EC50 of Tlr4^Lps-d transfected clones/mean EC50 of Tlr4^Lps-n transfected clones)” value in the assay with RAW 264.7 cells (LPS EC50 measured for each individual clone) amounted to 1120 fold. In the assay with RAW 264.7 cells (composite EC50 analysis), the “difference in the mean response at the EC50 point, Tlr4^Lps-n vs Tlr4^Lps-d over-expression” value was 74,000 fold. Besides, in the assay with RAW 264.7 cells (composite EC50 analysis, full-length protein in RAW 264.7, TNF production), the “shift to the right of the LPS EC50 curve (suppression of the LPS response)” value amounted to 2600 fold.

These data come from US7029861B1, “LPS-response gene compositions and methods” (Board of Regents, The University of Texas System, priority 1998, dated 2006).
